Measurements taken from article PMC4864350, “Fluorogenic Substrates for In Situ Monitoring of Caspase-3 Activity in Live Cells” (PLoS ONE, 2016).
Non-standard residues stand in square brackets, D forms with d. *: point of attachment. MethylRed = CN(C)c1ccc(/N=N/c2ccccc2C(=O)*)cc1; FAM = 5(6)-carboxyfluorescein; peptoid = not defined here; Ahx = NCCCCCC(=O)O

T1: caspase-3 (Homo sapiens, UniProt P42574)
T1 construct: purchased R&D systems, USA
T1 sequence (P42574 29-175 limits assumed): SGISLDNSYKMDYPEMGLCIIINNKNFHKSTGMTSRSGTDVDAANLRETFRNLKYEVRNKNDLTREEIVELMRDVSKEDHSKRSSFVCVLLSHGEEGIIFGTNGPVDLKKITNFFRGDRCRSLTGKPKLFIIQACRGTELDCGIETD
T1 sequence (P42574 176-277 limits assumed): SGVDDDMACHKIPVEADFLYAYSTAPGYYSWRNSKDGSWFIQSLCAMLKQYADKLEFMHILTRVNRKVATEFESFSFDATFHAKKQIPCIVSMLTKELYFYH

T2: caspase-7 (Homo sapiens, UniProt P55210)
T2 construct: purchased R&D systems, USA
T2 sequence (P55210 24-198 limits assumed): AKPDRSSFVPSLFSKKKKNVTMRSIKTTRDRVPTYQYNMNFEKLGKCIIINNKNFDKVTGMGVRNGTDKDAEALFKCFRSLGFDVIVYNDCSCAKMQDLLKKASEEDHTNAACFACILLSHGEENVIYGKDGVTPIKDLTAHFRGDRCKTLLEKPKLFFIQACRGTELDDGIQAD
T2 sequence (P55210 207-303 limits assumed): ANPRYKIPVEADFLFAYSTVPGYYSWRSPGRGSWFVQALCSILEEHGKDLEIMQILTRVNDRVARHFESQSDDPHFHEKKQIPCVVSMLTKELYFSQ

T3: caspase-3 (UniProt P42574)
T3 sequence: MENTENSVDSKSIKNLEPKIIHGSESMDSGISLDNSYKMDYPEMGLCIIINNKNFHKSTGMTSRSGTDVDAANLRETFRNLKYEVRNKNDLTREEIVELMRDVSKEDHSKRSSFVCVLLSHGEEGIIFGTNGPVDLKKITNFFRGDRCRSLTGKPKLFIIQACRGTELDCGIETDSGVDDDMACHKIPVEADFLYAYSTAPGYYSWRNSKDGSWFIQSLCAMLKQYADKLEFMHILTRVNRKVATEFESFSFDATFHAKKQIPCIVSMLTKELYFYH


Tests used:
caspase-3 [1] = target: T1, caspase-3; experiment: Kinetic assay of fluorogenic substrates with caspase-3; type: biochemical; conditions: substrate range 0.1–8 μM, enzyme 20 nM (1–9) or 15 nM (10–14), n = 3; for Km: fluorescence λEx/Em 485/528 nm, initial rate 0–5 min, Michaelis-Menten
Method: (§1) The ability of […] (bearing MR as the quencher of choice) to act as s substrate for caspase-3, as well as caspase-7, was investigated by determining the catalytic efficiency (kcat/KM) for each substrate with both enzymes (Table 2).
(§2) Caspase-3 or caspase-7 (R&D systems, USA) was added to 100 μL of caspase assay buffer with substrates 1–14 at concentrations from 0.1 μM to 8 μM in a 96-well plate (n = 3) to give final enzyme concentration of 20 nM (1–9) or 15 nM (10–14). Fluorescence (λEx/Em 485/528 nm) was recorded on a Biotek Synergy HT Multi-Mode Microplate Reader every 2 min. Control samples had the same composition but no enzyme. The rate (μM/min) was calibrated using a 5(6)-carboxyfluorescein conversion factor (0.0055 μM/RFU) and data plotted against time (min). For initial cleavage rate (0–5 min), plots were fitted using linear regression analysis and the Michaelis-Menten data generated using GraphPad Prism 5.

caspase-7 [2] = target: T2, caspase-7; experiment: Kinetic assay of fluorogenic substrates with caspase-7; type: biochemical; conditions: substrate range 0.1–8 μM; enzyme 20 nM (1–9) or 15 nM (10–14); n = 3
Method: as §1, §2

caspase-3 [3] = target: T1, caspase-3; experiment: Caspase-3-mediated cleavage at high enzyme concentration analysed by MALDI-TOF MS; type: biochemical; conditions: 10–20 μM substrate, 0.4 μM enzyme; for cleavage by caspase-3 (MALDI-TOF MS): 2 h, 37 °C; for parent compound after incubation with caspase-3: after 2h, MALDI-TOF MS
Method: (§3) To confirm how specific 11, 12 and 14 were for caspase-3, these substrates were incubated with high enzyme concentrations (10–20 μM substrate, 0.4 μM enzyme) and the caspase-mediated cleavage analysed by MALDI-TOF MS.
(§4) S2 Fig. (A) MALDI-TOF MS spectra of substrate 11 (sequence Asp-Ala-Pro-Asp). (B) After incubation (20 µM) with Caspase-3 for 2 h. (C) After incubation (20 µM) with Caspase-7 for 2 h (detected as the PBS adduct.)
(§5) Caspase-3 or caspase-7 (R&D systems, USA) was added to 100 µL of caspase assay buffer (final enzyme concentration 0.4 µM) with the substrates at 10–20 µM. The samples were incubated in Eppendorf Thermomixer® Comfort shaking at 1200 rpm for 2h at 37 °C. MALDI -TOF mass spectra were recorded as described in Table S1 .
(§6) (1 picture or pasted object on this page, not shown here)

caspase-7 [4] = target: T2, caspase-7; experiment: Caspase-7-mediated cleavage at high enzyme concentration analysed by MALDI-TOF MS; type: biochemical; conditions: 10–20 μM substrate, 0.4 μM enzyme, 2 h; for cleavage by caspase-7 (MALDI-TOF MS): 37 °C; for cleavage site with caspase-7: MALDI-TOF MS
Method: as §3, §4, §5, §6

caspase-3 [5] = target: T3, caspase-3
caspase-3 [6] = target: T3, caspase-3; remark: listed apart in the source

Row | KM of cleavage by caspase-3 (fluorogenic Michaelis-Menten kinetics, substrate 0.1-8 μM, 15 nM enzyme) (caspase-3 [5]) [µM] | KM of cleavage by caspase-3 (fluorogenic Michaelis-Menten kinetics) (caspase-3 [6]) [µM] | Molecule | Km (caspase-3 [1]) [µM] | Kcat, Caspase-3 (caspase-3 [1]) [s⁻¹] | Km (caspase-7 [2]) [µM] | kcat, Caspase-7 (caspase-7 [2]) [s⁻¹] | kcat/KM, Caspase-7 (caspase-7 [2]) [M⁻¹ s⁻¹] | cleavage by caspase-3 (MALDI-TOF MS) (caspase-3 [3]) | parent compound after incubation with caspase-3 (caspase-3 [3]) | cleavage by caspase-7 (MALDI-TOF MS) (caspase-7 [4]) | cleavage site with caspase-7 (caspase-7 [4]) | kcat/KM (catalytic efficiency), Caspase-3 (caspase-3 [1]; listed as 12) [M⁻¹ s⁻¹] | kcat/KM (catalytic efficiency), Caspase-3 (caspase-3 [1]; listed as 11) [M⁻¹ s⁻¹]
1 |  |  | substrate 14: FRET fluorogenic substrate, recognition Asp-Val-Pro-Asp, quencher MR, C-terminal peptoid ({FAM-Ahx}-DVPD[Ahx]K(MethylRed)-{peptoid-NH2}; reading uncertain; also: printed as Asp-Val-Pro-Asp) | 0.2 ± 0.04 | 0.0283 ± 0.0017 | 3.6 ± 0.9 | 0.0233 ± 0.0033 | 6700 | cleaved by caspase-3 at the X1 position | no longer detected | (partially) cleaved by caspase-7 | between the Ahx spacer and the Lys(MR) |  | 
2 |  |  | substrate 12: FRET fluorogenic substrate, recognition Asp-Leu-Pro-Asp, quencher MR, C-terminal peptoid ({FAM-Ahx}-DLPD[Ahx]K(MethylRed)-{peptoid-NH2}; reading uncertain; also: printed as Asp-Leu-Pro-Asp) | 0.2 ± 0.1 | 0.0233 ± 0.0033 | 1.4 ± 0.3 | 0.015 ± 0.0012 | 12000 | cleaved by caspase-3 at the X1 position | no longer detected | (partially) cleaved by caspase-7 | between the Ahx spacer and the Lys(MR) | 96700 | 
3 |  |  | substrate 11: FRET fluorogenic substrate, recognition Asp-Ala-Pro-Asp, quencher MR, C-terminal peptoid ({FAM-Ahx}-DAPD[Ahx]K(MethylRed)-{peptoid-NH2}; reading uncertain; also: printed as Asp-Ala-Pro-Asp) | 0.4 ± 0.1 | 0.0217 ± 0.0017 | 4.9 ± 2.1 | 0.0267 ± 0.005 | 5000 | cleaved by caspase-3 at the X1 position | no longer detected | (partially) cleaved by caspase-7 | between the Ahx spacer and the Lys(MR) |  | 56700
4 | 0.4 |  | {FAM-Ahx}-DAPD[Ahx]K(MethylRed)-{peptoid-NH2} (reading uncertain; also: printed as Asp-Ala-Pro-Asp) [fluorogenic substrate 11 (FAM-Ahx-Asp-Ala-Pro-Asp-Ahx-Lys(MR)-peptoid)] |  |  |  |  |  |  |  |  |  |  | 
5 | 0.2 |  | {FAM-Ahx}-DVPD[Ahx]K(MethylRed)-{peptoid-NH2} (reading uncertain; also: printed as Asp-Val-Pro-Asp) [fluorogenic substrate 14 (FAM-Ahx-Asp-Val-Pro-Asp-Ahx-Lys(MR)-peptoid)] |  |  |  |  |  |  |  |  |  |  | 
6 | 0.2 |  | {FAM-Ahx}-DLPD[Ahx]K(MethylRed)-{peptoid-NH2} (reading uncertain; also: printed as FAM-Ahx-Asp-Leu-Pro-Asp-Ahx-Lys(MR)-peptoid) [fluorogenic substrate 12 (FAM-Ahx-Asp-Leu-Pro-Asp-Ahx-Lys(MR)-peptoid)] |  |  |  |  |  |  |  |  |  |  | 
7 |  | 1.1 | {FAM-Ahx}-DLPDK(MethylRed)-{Ahx-peptoid} (reading uncertain; also: printed as FAM-Ahx-Asp-Leu-Pro-Asp-Lys(MR)-Ahx-peptoid) [fluorogenic substrate 27 (FAM-Ahx-Asp-Leu-Pro-Asp-Lys(MR)-Ahx-peptoid)] |  |  |  |  |  |  |  |  |  |  | 
